In the RNAGym collection of RNA variant scans (doi:10.1073/pnas.2313332121):
Fewer inactive variants are shown than the library holds.

B1: TPR 5TU (parent)
chain: GGAUCUUCUCGAUCUAACAAAAAAGACAAAUCUGCCACAAAGCUUGAGAGCAUCUUCGGAUGCAGAGGCGGCAGCCUUCGGUGGCGCGAUAGCGCCAACGUUCUCAACUAUGACACGCAAAACGCGUGCUCCGUUGAAUGGAGUUUAUCAUG

Variants of: B1
Assay: polymerase ribozyme fitness, log enrichment relative to wild type (log ratio); higher = more active; in vitro selection for triplet polymerase activity
How it was run: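 A single round of triplicate in vitro selection, including frozen incubation at −7 °C, was applied to PCR-built, transcribed mutant libraries of each subunit of a heterodimeric triplet polymerase ribozyme. Illumina sequencing of input and output libraries retained genotypes with ≥10 input reads and ≥1 read per output. Fitness is the base-2 logarithm of genotype enrichment divided by wild-type enrichment, from inverse-variance-weighted replicate averages.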

For GGAUCUUCUCGAUCUAUCAAAAAAGACAAAUCAGCAACAAAGCUUGAGAGCAUCUUCGGAUGCAGAGGCGGCAGCAUUCGGUGGCGCGAUAGCACCAACGUUCUCAACUAUGACACUCAAAACGCGUGUUCCGUUGAAUGGAGUUUAUCAUG, which “polymerase ribozyme fitness (log ratio)” value is on record?
Its value is ≤ -4.2.

With GGAUCUUCUCGAUCUAUCAAAAAAGACAAAUCUGCCACAAAGCUUGAGAGCAUCUUCGGAUGCAGAGGCGGCAGCCUUCGGUAGCGCGAUAGCGCUAACGUUCUCAACUAUGACACGCAAAACGUGUGUUCCGUUGAAUGGAGUUUAUCAUG as the variant, how does the “polymerase ribozyme fitness (log ratio)” value read?
Its value is -1.96.

For GGAUCUUCUCGAUCUAUCAAAAAAGACAAAUCUGCCACAAAGCUUGAGAGCAUCUUCGGAUGCAGAGGCGGCAGCCUUCGGUGGCGCGAUAACGCCAACGUUCUCAACUAUGACACGCAAAACGCGUGCUCCGUUGAAUGGAGUUUAUCAUG, which “polymerase ribozyme fitness (log ratio)” value is on record?
Its value is -2.84.

With GGAUCUUCUCGAUCUAUCAAAAAAGACAAAUCUGCCACAAAGCUUGAGAGCACCUUCGGAUGCAGAGGCGGCAGCCUUCGGUGGCGCGAUAACGCCAACGUUCUCAACUAUGACACGCAAAACGCGUGGUCCGUUGAAUGGAGUUUAUCAUG as the variant, how does the “polymerase ribozyme fitness (log ratio)” value read?
The value was ≤ -4.2.

For GGAUCUUCUCGAUCUAUCAAAAAAGACAAAUCUGCCACAAAGCUUGAGAGCAUCUUCGGAUGCAGAGGCGGCAGCCUUCGGUUGCGCGAUAGCGCCAACGUUCUCAACUAUGACACGCAAAACGCGUGCUCCGUUGAAUGGAGUUUAUCAUG, which “polymerase ribozyme fitness (log ratio)” value is on record?
Its value is -1.65.

For GGAUCUUCUCGAUCUAUCAAAAAAGACAAAUCUGCCACAAAGCUUGAGAGCAUCUUCGGAUGCAGAGGCGGCAGCCUUCGAUGACGCGAUAGCGCCAACGUUCUCAACUAUGACACGCAAAACGCGUGCUCCGUUGAAUGGAGUUUAUCAUG, which “polymerase ribozyme fitness (log ratio)” value is on record?
The value was -0.321.

Which “polymerase ribozyme fitness (log ratio)” value does the source give for GGAUCUUCUCGAUCUAUCAAAAAAGACAAAUCUGCCACAAAGCUUGAGAGCAUCUUCGGAUGCAGAGGCGGCAGCCUUCGGUGGCGCGAUAGCGCCAACAUUCUCAACUAUGACACGCACAACGCGUGCUCCGUUGAAUGGAGUUUAUCUUG here?
The value was ≤ -4.2.

For GGAUCUUCUCGAUCUAUCAAAAAAGACAAAUCUGCCACAAAGCUUGAGAGCAUCUUCGGAUGCAGAGGCGGCAGCCUUCGGUGGCGCGAUAGCCCCAACGUUCUCAACUAUGACACGCAAAACGCGUGCUCUGUUGAAUGGAGUUUAUCAUG, which “polymerase ribozyme fitness (log ratio)” value is on record?
The value was -1.54.

Which “polymerase ribozyme fitness (log ratio)” value does the source give for GGAUCUUCUCGAUCUAUCAAAAAAGACAAAUCGCCCACAAAGCUUGGGAGCAUCUUCGGAUGCAGAGGCGGCAGCCUUCGGUGGCGCGAUAGCGCCAACGUUCUCAACUAUGACACGCAAAACGCGUGCUCCGUUGAAUGGAGUUUAUCAUG here?
Its value is ≤ -4.2.

With GGAUCUUCUCGAUCUAUCAAAAAAGACAAAGAUGCCACAAAGCUUGAGAGCAUCUUCGGAUGCAGAGGCGGCAGCCUUCGGUGGCGCGAUAGCGCCAACGUUCUCAACUAUGACACGCAAAACGCGUGCUCCGUUGAAUGGAGUUUAUCGUG as the variant, how does the “polymerase ribozyme fitness (log ratio)” value read?
The value was ≤ -4.2.

Which “polymerase ribozyme fitness (log ratio)” value does the source give for GGAUCUUCUCGAUCUAUCAAAAAAGACAAACCUGCCACAAAGCUUGAGAACAUCUUCGGAUGCUGAGGAGGCAGCCUUCGGUGGCGCGAUAGCGCCAAUGUUCUCAACUAUGACACGCAAAACGCGUGCUCCGUUGAAUGGAGUUUAUCAUG here?
Its value is ≤ -4.2.

For GGAUCUUCUCGAUCUAUCAAAAAAGACAAAUCUGCCACAAAGCUUGAGAGCAUCUUCGGAUGCAGAGGCGGCAGCCUUCGGUAGCUCGAUAGCGCCAACGUUCUCAACUAUGACACGCAAAACGCGUGCUCCGUUGAAUGGCGUUUAUCAUG, which “polymerase ribozyme fitness (log ratio)” value is on record?
The value was ≤ -4.2.

For GGAUCUUCUCGAUCUAUCAAAAAAGACAAAUCUGCCACAAAGCUUGAGAGCAUCUUCGGAUGCAGAGGCGGCAGCCUUCGGUGACGCGAUAGCGCCAACGUUCUCAACUAUGACACGCAAAAGGCGUGCUCCGUUGAAUGGAGUUUAUCAUG, which “polymerase ribozyme fitness (log ratio)” value is on record?
Its value is -0.525.

For GGAUCUUCUCGAUCUAUCAAAAAAGACAAAGCUGCCACAAAGCUUGAGACCAUCUUCGGAUGCAGAGGCGGCAGCCUGCGGUGGCGCGAGAGCGCGAACGUUCUCAACUAUGACACGCAAAACGCGUGCUCCGUUGAAUGGAGUUUAUCAUG, which “polymerase ribozyme fitness (log ratio)” value is on record?
The value was ≤ -4.2.

Which “polymerase ribozyme fitness (log ratio)” value does the source give for GGAUCUUCUCGAUCUAUCAAAAAAGACAAAUCUGCCACAAAGCAUGAGAGCAUGGUCGGAUCCAGAGGCGGCAGCCUUCGGUGGCGAGAUAGCGCCAAUGUUCUCAACUAUGACACGCAAAACGCGUGCUCCGUUGAAUGGAGUUUAUCGUC here?
The value was ≤ -4.2.

For GGAUCUUCUCGAUCUAUCAAAAAAGACAAAUCUGCCACAAAGCUUGAGAGCAUCUUCGGAUGCAGAGGCGGCAGCCUUCGGUGGCGCGAUAUCGCCAACGGUCUCAACUAUGACACGCAAAACGCGGGCUCCGUUGAAUGGAGUUUAACAUG, which “polymerase ribozyme fitness (log ratio)” value is on record?
Its value is -4.01.

With GGAUCUUCUCGAUCUAUCAAAAAAGACAAAUCUGCCACAAAGCUUGAGAGCAUCUUCGGAUGCAGAGGCGGCAGCCUUCGGUGUCGCGAUAGCGCCAACGUUCUCAACUAUGACACGCAAAACGCGUGCUCCGUUGAAUGGAGUUUAUCAUG as the variant, how does the “polymerase ribozyme fitness (log ratio)” value read?
Its value is -1.75.

With GGAUCUUCUCGAUCUAUCAAAAAAGACAAAUCUGCCACAAAGCUUGAGAGCAUCUUCGGAUGCAGAGGCGGCAGCCUUCGGUGGCGCGAUAGCGCCAACUUUCUCAACUAUGACACGCAAAACGCGUGCUCCGAUGAAUGGAGUGUAUCAUG as the variant, how does the “polymerase ribozyme fitness (log ratio)” value read?
The value was ≤ -4.2.

With GGAUCUUCUCGAUCUAUCAAAAAAGACAAAUCUGCCACAAAGCUUGAGAGCAUCUUCGGAUGCAGAGGCGGCAGCCUUCGGUGGCGCGAUAGCGCCAACGUUCUCAACUAUGACACGCAAAACUCGUGCUCCGUUGAAUGGAGUUUAUCAUG as the variant, how does the “polymerase ribozyme fitness (log ratio)” value read?
The value was -0.693.
